{"source": "paper PMC4860257", "about": "(Structure (London, England : 1993), 2016)", "binders": {"B1": {"name": "talin R7R8R9 (residues 1357-1822), wild type, His tag removed, as crystallised (domain or fragment, UniProt P26039 1357-1822, looked up)", "chain": "APGQKECDNALRQLETVRELLENPVQPINDMSYFGCLDSVMENSKVLGEAMTGISQNAKNGNLPEFGDAIATASKALCGFTEAAAQAAYLVGVSDPNSQAGQQGLVEPTQFARANQAIQMACQSLGEPGCTQAQVLSAATIVAKHTSALCNSCRLASARTANPTAKRQFVQSAKEVANSTANLVKTIKALDGDFTEENRAQCRAATAPLLEAVDNLSAFASNPEFSSVPAQISPEGRAAMEPIVISAKTMLESAGGLIQTARALAVNPRDPPRWSVLAGHSRTVSDSIKKLITSMRDKAPGQLECETAIAALNSCLRDLDQASLAAVSQQLAPREGISQEALHTQMLTAVQEISHLIEPLASAARAEASQLGHKVSQMAQYFEPLTLAAVGAASKTLSHPQQMALLDQTKTLAESALQLLYTAKEAGGNPKQAAHTQEALEEAVQMMTEAVEDLTTTLNEAASAAG"}, "B2": {"name": "GST-tagged talin F2F3 domains (residues 196-405) (domain or fragment, UniProt P26039 196-405, looked up)", "chain": "KFFYSDQNVDSRDPVQLNLLYVQARDDILNGSHPVSFDKACEFAGFQCQIQFGPHNEQKHKAGFLDLKDFLPKEYVKQKGERKIFQAHKNCGQMSEIEAKVRYVKLARSLKTYGVSFFLVKEKMKGKNKLVPRLLGITKECVMRVDEKTKEVIQEWSLTNIKRWAASPKSFTLDFGDYQDGYYSVQTTEGEQIAQLIAGYIDIILKKKKS"}, "B3": {"name": "His-tagged talin R7R8R9-2Y (E1794Y/E1797Y) (domain or fragment, UniProt P26039 1357-1822, looked up)", "chain": "B1 chain with E438Y, E441Y"}, "B4": {"name": "His-tagged talin R7R8R9-3Y (E1794Y/E1797Y/Q1801Y) (domain or fragment, UniProt P26039 1357-1822, looked up)", "chain": "B1 chain with E438Y, E441Y, Q445Y"}, "B5": {"name": "GST-tagged talin R9 domain (residues 1655-1822), wild type (domain or fragment, UniProt P26039 1655-1822, looked up)", "chain": "APGQLECETAIAALNSCLRDLDQASLAAVSQQLAPREGISQEALHTQMLTAVQEISHLIEPLASAARAEASQLGHKVSQMAQYFEPLTLAAVGAASKTLSHPQQMALLDQTKTLAESALQLLYTAKEAGGNPKQAAHTQEALEEAVQMMTEAVEDLTTTLNEAASAAG"}, "B6": {"name": "GST-tagged talin R9-3Y (E1794Y/E1797Y/Q1801Y) (domain or fragment, UniProt P26039 1655-1822, looked up)", "chain": "B5 chain with E140Y, E143Y, Q147Y"}, "B7": {"name": "GST-tagged talin R9-T1812Y (domain or fragment, UniProt P26039 1655-1822, looked up)", "chain": "B5 chain with T158Y"}}, "key": {"[1]": {"target": "the molecule itself", "assay": "crystal structure"}, "[2]": {"target": "His-tagged talin R7R8R9 (residues 1357-1822), wild type (UniProt P26039 1357-1822)", "assay": "pull-down"}, "[3]": {"target": "B3", "assay": "pull-down"}, "[4]": {"target": "B4", "assay": "pull-down"}, "[5]": {"target": "the molecule itself", "assay": "SEC-MALS"}, "[6]": {"target": "His-tagged talin F2F3 domains (residues 196-405), wild type (UniProt P26039 196-405)", "assay": "pull-down"}, "[7]": {"target": "His-tagged talin F2F3-K322A (UniProt P26039 196-405, K322A)", "assay": "pull-down"}, "[8]": {"target": "His-tagged talin F2F3-K324A (UniProt P26039 196-405, K324A)", "assay": "pull-down"}, "[9]": {"target": "His-tagged talin F2F3-KKR (K272A/K274A/R277A) (UniProt P26039 196-405, K272A | K274A | R277A)", "assay": "pull-down"}}, "note": "Residue numbers refer to the chain shown, from its start. Names may count otherwise.", "data": [{"binder": "B1", "values": [{"measurement": "binding result", "setting": "[1]", "result": "binds"}]}, {"binder": "B2", "values": [{"measurement": "binding result", "setting": "[2]", "result": "binds"}, {"measurement": "binding result", "setting": "[3]", "result": "binds"}, {"measurement": "binding result", "setting": "[4]", "result": "binds"}]}, {"binder": "B3", "values": [{"measurement": "stoichiometry N", "setting": "[5]", "result": 2}]}, {"binder": "B4", "values": [{"measurement": "stoichiometry N", "setting": "[5]", "result": 2}]}, {"binder": "B5", "values": [{"measurement": "binding result", "setting": "[6]", "result": "binds"}, {"measurement": "binding result", "setting": "[7]", "result": "binds"}, {"measurement": "binding result", "setting": "[8]", "result": "binds"}, {"measurement": "binding result", "setting": "[9]", "result": "binds"}]}, {"binder": "B6", "values": [{"measurement": "binding result", "setting": "[6]", "result": "binds"}]}, {"binder": "B7", "values": [{"measurement": "binding result", "setting": "[6]", "result": "binds"}]}]}
